Series [1] deals with T1, PbfC (Azospirillum sp. B510, UniProt P0DY71).
T1 construct: synthetic codon-optimised gene in pET28a, N-terminal His tag, expressed in E. coli Tuner (DE3), HisTrap and SEC; noncovalent FAD
T1 sequence (P0DY71 1-415): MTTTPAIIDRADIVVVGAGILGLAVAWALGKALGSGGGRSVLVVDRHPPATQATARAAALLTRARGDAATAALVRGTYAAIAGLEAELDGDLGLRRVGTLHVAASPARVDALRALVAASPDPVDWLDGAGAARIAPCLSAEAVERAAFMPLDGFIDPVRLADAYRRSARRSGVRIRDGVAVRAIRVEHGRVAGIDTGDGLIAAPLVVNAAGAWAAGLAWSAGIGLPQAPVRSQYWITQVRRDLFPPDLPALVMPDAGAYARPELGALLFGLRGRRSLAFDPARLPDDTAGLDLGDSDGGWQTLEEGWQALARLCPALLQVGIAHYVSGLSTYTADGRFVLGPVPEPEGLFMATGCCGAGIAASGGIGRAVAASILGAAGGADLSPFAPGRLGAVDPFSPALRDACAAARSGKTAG
Briefly: UV-vis spectra of bound flavin; cofactor released by heat or SDS. Format: binding. The settings on record: noncovalent; 10 μM FAD added during purification; 50 mM TEA-HCl pH 8.0.

Series [2] concerns the target T2, PbfD1 (Acinetobacter baumannii, UniProt P0DY72).
T2 construct: gene pbfD; synthetic codon-optimised gene in pET28a, N-terminal His tag, expressed in E. coli Tuner (DE3), HisTrap; noncovalent FAD
T2 sequence (P0DY72 1-384): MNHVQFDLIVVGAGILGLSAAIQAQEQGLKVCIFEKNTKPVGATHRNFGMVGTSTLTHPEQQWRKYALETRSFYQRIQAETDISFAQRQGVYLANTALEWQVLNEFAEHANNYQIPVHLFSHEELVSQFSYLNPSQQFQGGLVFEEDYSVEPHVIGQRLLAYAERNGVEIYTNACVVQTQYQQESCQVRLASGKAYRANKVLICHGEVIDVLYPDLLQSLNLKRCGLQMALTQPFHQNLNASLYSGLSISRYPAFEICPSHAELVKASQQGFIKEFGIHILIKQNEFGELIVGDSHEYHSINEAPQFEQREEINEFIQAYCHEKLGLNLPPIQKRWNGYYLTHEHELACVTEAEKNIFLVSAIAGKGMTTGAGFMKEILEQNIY
The description is as above. Type of series: binding. The settings on record: noncovalent; 10 μM FAD added at lysis; 50 mM TEA-HCl pH 8.0.

Series [3] has as its target T3, PbfD2 (Mariniblastus fucicola, UniProt A0A5B9PNB8).
T3 construct: gene pbfD; noncovalent FAD
T3 sequence (A0A5B9PNB8 1-373): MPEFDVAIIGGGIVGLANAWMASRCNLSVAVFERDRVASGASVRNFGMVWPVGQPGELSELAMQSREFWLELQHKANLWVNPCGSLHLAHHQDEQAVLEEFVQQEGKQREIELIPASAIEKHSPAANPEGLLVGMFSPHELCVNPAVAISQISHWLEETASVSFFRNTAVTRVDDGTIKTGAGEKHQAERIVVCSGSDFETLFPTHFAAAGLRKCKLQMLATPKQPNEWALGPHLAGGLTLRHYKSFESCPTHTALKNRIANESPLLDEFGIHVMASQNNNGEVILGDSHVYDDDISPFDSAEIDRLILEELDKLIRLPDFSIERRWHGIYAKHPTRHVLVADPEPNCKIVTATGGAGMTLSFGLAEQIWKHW
The series is described as above. Type of series: binding. Particulars: noncovalent; 10 μM FAD added at lysis; 50 mM TEA-HCl pH 8.0.

Substrate in series [4]: NCCP(=O)(O)O
Briefly: purified protein.

Substrate in series [5]: CNCCP(=O)(O)O
Briefly: purified protein.

Substrate in series [6]: NCCP(=O)(O)O
Briefly: coupled PhnX-ADH assay, NADH A340, Michaelis-Menten fit. Particulars: air-saturated (~0.25 mM O2), 50 mM TEA-HCl pH 8.0, 2.5 mM MgCl2, 25°C. Format: biochemical, Acinetobacter baumannii. An excerpt:
(§1) coupled PhnX-ADH assay, NADH A340, Michaelis-Menten fit on PbfD1

Substrate in series [7]: CNCCP(=O)(O)O
The description is as above. Format: biochemical, Acinetobacter baumannii. Particulars: air-saturated (~0.25 mM O2), 50 mM TEA-HCl pH 8.0, 2.5 mM MgCl2, 25°C.
Source text: as §1

Substrate in series [8]: CN(C)CCP(=O)(O)O
The description is as above. Format: biochemical, Acinetobacter baumannii. The settings on record: air-saturated (~0.25 mM O2), 50 mM TEA-HCl pH 8.0, 2.5 mM MgCl2, 25°C.
Source text: as §1

[9] abbreviates: air-saturated (~0.25 mM O2), 50 mM TEA-HCl pH 8.0, 2.5 mM MgCl2, 25°C.
The mark [10] stands for this setting: 80 μM DCPIP, 3 mM PMS, 50 mM TEA-HCl pH 8.0, 25°C.

As to `Cc1cc2nc3c(=O)[nH]c(=O)nc-3n(C[C@H](O)[C@H](O)[C@H](O)COP(=O)(O)OP(=O)(O)OC[C@H]3O[C@@H](n4cnc5c(N)ncnc54)[C@H](O)[C@@H]3O)c2cc1C` [FAD], the “UV-vis spectra of bound flavin; cofactor released by heat or SDS” value in series [1], in series [2] and in series [3] was “the spectrum of the released cofactor was typical of FAD” each time.

B1: PbfD2 (Mariniblastus fucicola) (protein)
chain: T3 sequence (A0A5B9PNB8 1-373)
On to B1, for which, in series [4] (setting [9]), the Km (in general, the concentration of substrate that gives half-maximal velocity) worked out at 2.6 ± 0.32 mM; the kcat – broadly, the maximal rate divided by the concentration of active sites – was 8.9 ± 0.3 s⁻¹; the kcat/Km (commonly the second-order rate constant that governs catalysis at low substrate concentration) was 3400 ± 320 M⁻¹ s⁻¹. In addition, in series [5] (setting [9]), the Km turned out to be 0.36 ± 0.02 mM, the kcat was 4.9 ± 0.07 s⁻¹ and the specificity constant (kcat/Km) was 13500 ± 550 M⁻¹ s⁻¹.

B2: PbfC (Azospirillum sp. B510) (protein)
chain: T1 sequence (P0DY71 1-415)
As to B2, in series [4] (setting [10]), the Km is given as 20 ± 1.7 mM, the kcat was found to be 2.2 ± 0.1 s⁻¹ and the kcat/Km was 110 ± 6 M⁻¹ s⁻¹. For the same molecule, in series [5] (setting [10]), the Km is reported as 0.20 ± 0.01 mM, the kcat was 9 ± 0.2 s⁻¹ and the kcat/Km amounted to 45000 ± 2700 M⁻¹ s⁻¹.

B3: PbfD1 (Acinetobacter baumannii) (protein)
chain: T2 sequence (P0DY72 1-384)
notes: synthetic codon-optimised gene in pET28a, N-terminal His tag, expressed in E. coli Tuner (DE3), HisTrap; noncovalent FAD
Turning to B3, in series [6], the Km came to 71 ± 16 mM, the kcat turned out to be 9.1 ± 1.7 s⁻¹ and the kcat/Km was found to be 130 ± 6 M⁻¹ s⁻¹. For the same molecule, in series [7], the Km came to 5.8 ± 0.62 mM, the kcat came out at 13.2 ± 0.54 s⁻¹ and the kcat/Km is 2300 ± 160 M⁻¹ s⁻¹. In addition, in series [8], the Km was determined as 54 ± 14 mM, the kcat was 22 ± 4.5 s⁻¹ and the kcat/Km amounted to 400 ± 26 M⁻¹ s⁻¹.

The record behind these values is article PMC10590968, “Deciphering the role of recurrent FAD-dependent enzymes in bacterial phosphonate catabolism” (iScience, 2023).
